According to article PMC6250738:
Values belong to the substance of their own block, whether it stands above or below them.

Assays:
Assay in all cases: SEC; Superdex 200 10/30 GL, PBS, native conditions; MW from elution volume against protein standards
[1] = target: superfolder green fluorescent protein-TriggerTrimer-galectin-3 trimeric nanoassembly
[2] = target: NanoLuc luciferase-TriggerTrimer-galectin-3 trimeric nanoassembly (deep sea shrimp | not stated | human)
[3] = target: chondroitinase ABC I-TriggerTrimer-galectin-3 trimeric nanoassembly

stoichiometry N [1]: 3
Substance: superfolder green fluorescent protein-TriggerTrimer-galectin-3 trimeric nanoassembly

stoichiometry N [2]: 3
Substance: NanoLuc luciferase-TriggerTrimer-galectin-3 trimeric nanoassembly

Substance: chondroitinase ABC I-TriggerTrimer-galectin-3 trimeric nanoassembly
stoichiometry N [3]: 3
